According to the DeepSol protein solubility set:

assay: soluble on expression in E. coli; label from the status in PepcDB or PDB records

| Sequence | soluble on expression in E. coli |
| --- | --- |
| TPYDPLTLWTTPDPPPNCSLIQELDAKLTLCLTKNGSIVNGIVSLVGVKGNLLNIQSTTTTVGVHLVFDEQGRLITSTPTALVPQASWGYRQGQSVSTNTVTNGLGFMPNVSAYPRPNASEAKSQMVSLTYLQGDTSKPITMKVAFNGITSLNGYSLTFMWSGLSNYINQPFSTPSCSFSYITQE | soluble |
| MKLITAIVQDKDASSVANALVEHNIRATRLASAGGFLRSGNSTFLIAVKDDEVNTTIGVIKEHSKTRKQFVTPPVGLDMSIDTIGQPIEVEIGGATIIVQAIEDFQHF | not soluble |
| MGSDKIHHHHHHMREIAASRISAVLAELIVKISTELGEDILTALHKAYEAEESPAGRDILQSLLENARIAKEKKIPLCQDTGTAIVFAEVGQEVHVTGNFTDAINLGVRQGYEQAYLRKSIVSHPFSKRINTNDNTPAVIHTEIVPGDRLKISFMAKGSGAENMSRLFMLKPGVGREGVIEAVLETVEKAGGSPCPPIIIGLGVGATAEKAMFMAKKALLRPLGITHTDPEVAALETEVLKQVNKLGIGPLGLGGRVTALGVMAETAPTHIASLPVAVNLQCHSARHGEAVL | not soluble |
| MAHHHHHHMLSSISPKRYSFDKQGNIKEIDFLSCKSVILPEQHLNAKDNFICTTSILPNFYETPPDKASKLKMTQENNIDKANMGTNVYVQRTSSLSNMNVLQYADEVHNNLQDSNVHEINEPLIFADVNQYCGDANTQGIDPGVVAVSNALFAYNSAFQSIPIKSSPNVFKRRSKGEANSEWSNAFVTRVDPYECTDPEEEFKPYEVTKYYDEGKVKTVFNFDQENYNQDM | soluble |
| MTRACNLYVFKNKYVSFNLLDSPNSNPKLLKISLPFNFMDEFEGLLKAVGSAPWYKLIGMVPKLQGDRVVVEMEIDRSKHLQALGTTHGGAIASVLDSAIGLNVNREVVKMGKTAVTAQLNIHYIRPVTEGKIVGVGMPMHIGSKVTVGYGEVRNEEGELVAAGTATFYIIDRRFRDLEHHHHHH | not soluble |
| MLSPQTTQVAIIGAGPSGSIAAALLNKHNINCIILEKSTFPRFSIGESLLPACMESIKHAGMLNAVEDACFQFKDGAAFHCNGTFTSFDFTDKFTDGAGTTFQVQRGNFDKVLADCAKEQGVEIRYQHEITDVDVNAEKPLLSVLDENGTPYQIQADFILDASGFGRVLPKLLELEEPSCLPPRRAIFTHIKDNITDESYDRNKILVSVHPTNTQVWYWLIPFSNGTCSFGVVGEPEFFDAYSEDKVTALKQLAEEESNLKHLLNQAEYPNPCGEIMGYSANVSKLFDKNFALLGNAGEFLDPVFSSGVTIAMKSAELAADLLIKQFNQEDVNWQQDYSDKLMKGVNAFRCYVEGWYEGTFQDVIFHENPNPKIKQMICAILAGYAWDESNPFVAEPERRLKVVAELCKPLEHHHHHH | not soluble |
| MDYSVANAGFERFQSAMEKDVERMRDFQERMSQVRGKGEAAEGRITAEVDSENGLAVLDIDPRVLRMPVEDISTEIRAAVNAAFKDFQDKTGSLAAELYGAQGEDPEKILADPSALLAKIEELGNNFAVQLQDMARELSVQQQRAKDIAGRMTPPRDLD | not soluble |
| MGSDKIHHHHHHMSSEMNGTAPFQDQGATDVSLLEDIVRVTKLQPADEAYSITRRGVAALMAQLLEPGAEARKVSKAVLDDMIAEIDRKLSLQMDEILHHPQFQALESSWRSLHFLVDRTDFRENNRIEFLNATKEELLDDFEDAPEVAKSGLYKTVYSAEYGQFGGKPFGAIIGNYDFGPGAQDIKLLQSLAAVAGMAHAPFMAAASPQFFGCDDFTALPNLKDISSILEGPQYAKWQAFRESEDARYVGLALPRFLLRLPYGEATRPAKCFNYEEQVSDSHDRYCWGNAAFAFATRLTESFANFRWCANIIGPQGGGTVHDLPLHQYQAMGAIQTKIPTEVLISERREFELAEGGFIALTMRKGSDNAAFFSANSVQKPKFFGSSKEGKEAELNYKLGLQLPYMFIVSRLAHYLKVIQREHIGTWKERGDLENELNLWIRQYVSEMDNPMPGVRSRRPLRQAEVTVEEVPGEPGWYRVGLKVTPHFKYMGAYFTLSLVGKLDKE | not soluble |
| MSLTTNRTRKAGADSEISDLLKTQSELHGRIAAMAETLGTRQTEMSQTLNQRLDGMSQRLGETLTEQTRSTHENLSRLQERLAVIDAAQGNIQDLAKDVVGLQAILSNKQTRGAFGQARMETLIADALPAGAFQLQPTLSNGYRPDCIIKMPNNAPALVIDAKFPLEAWNAIKADETPETKRAAVQQFRRDMEVHIRDVAEKYLIRGETQDTAFIFVPSESIFADIHQHFEYLVQRAHRARVVIVSPSLLMLSVQVIQSVLKDQRMREQAHLIQGEVALLMDDVRRLDDRTRKLQAHFGLAQKDVDMMLISSDKVLARGQKIEGLDFSPTEKEASHGEIEQTRRFAENRAGAAKLRVVDDEEGHHHHHH | soluble |
| MRILIPFKANNPKSRLSSILSEEERKELARLMLLDVIDAAKPFGEIKVVCPSELDVEGVEVVVDTSDLNTTVNKVMDEAPLAVIMSDLPLLSEEVLKRFFETEGDVVVAPGRKGGTNMLLVRKRGFRVSYHFGSFFKHLEMARKMGMKAKIFDSFYSSVDIDDESDLLELMMHGSGKKSYEFLRKIGFSVSFEETPRLERRVFMQP | soluble |
| MGSDKIHHHHHHMTRLAIVRQKYNPAGGAERFVSRALAALRDKGELEVSLIARRWEPVEGVKAYQVDGPYLGNVWRDWSFARKARRIWLREGFDLVQSHERIPGCDVYRAGDGVHRRWLQLRRQGMSAWGRFVLWCNPYHHYIQRAESEMFHHPRLKRVICNSQMVKREIQQYFGLSDQQIVVIYNGVDLQSFHPGLRSEHRQAMRSQWGVPGDAPLLLYVGSGFERKGVARALKALQANPGAWLMVVGGDKRLARYRRLADELGVDARVVFAGAQGEVRPFYGMADAFILPTLYDPFPNVCVEALASGLPVLTTRQCGAAEFVRQGENGWVCDAFDEEALARSVAEWLSVSRNWPVLAEAARRSVEGLSLGAMAERMLNCYRDLLSVSAVA | not soluble |
| MSLSEEDLIENPLPENLLDKVIEGDAREVLKKIPDCSIHLMVTSPPYNVGKEYDEDMTLDEYLEFIEEIMKEVYRVLVWGGRACFNVANLGRKPYIPLHAYLIHLFEKIGFLIRGEIIWDKGEAVSGSSTAWGSWMSPVNPVLRDQHEYIIVMSKGDLKRRKPSDREAKSTITREEFLEFTRSVWKFPPESAKRVGHPAPFPEELPYRCIQLYTFKGDVVLDPFAGVGTTCVAAVKTGRHFVGIEINPEYVKKAEERVKDILSKPTLFEDHEGHHHHHH | soluble |
| SARRYDELPHYPGIVDGPAALASFPETVPAVPGPYGPHRPPQPLPPGLDSDGLKREKDEIYGHPLFPLLALVFEKCELATCSPRDGAGAGLGTPPGGDVCSSDSFNEDIAAFAKQVRSERPLFSSNPELDNLMIQAIQVLRFHLLELEKGKMPIDLVIEDRDGGCREDFEDYPASCPSLPDQNNMWIRDHEDSGSVHLGTPGPSSGGLASQSGDNSSDQGDGLDTSVASPSSGGEDEDLDQERRRNKKRGIFPKVATNIMRAWLFQHLSHPYPSEEQKKQLAQDTGLTILQVNNWFINARRRIVQPMIDQSNRTGQGAAFSPEGQPIGGYTETQPHVAVRPPGSVGMSLNLEGEWHYL | soluble |
| MPVANDAPGVDIEGTDADAESGDLPINELFQSLQGEGRLAGVPSVFVRTSGCNLRCWFCDSYHTSWEPTHDWFTVDDVLAAIEEYDANHVVLTGGEPLIHDSSEDLLARLTDRGYHTTVETNGTVVPDAPIDLASVSPKLASSTPTADRDPDGNGEWADRHEERRLDVPTLAELVETYDTQLKFVVTGREDMAEIERLLKRLRDAASTCVRDDDVLLMPEGQTRDQLEATRETVADLALEHGYRYTPRLHVDLWNDAPGT | not soluble |
| MDDLSPDSALPPAGSAQDNDAPRQLVVCIDGTSNRFGDQPTNVVRLYRSLSRDPRRVLAYYDQGVGTFGLKETLFEWQKFPSRIAGLAFGWGLKRNVEGAYRFLAEHYRPGDQIFLFGFSRGAYAVRVLAAMLRAVGLIDAHQPHLFDYAWTLLTTRMPPRDEDKRAGTRRRGPDFGLLGRFRKVFGRQVKVHFLGLFDTVTSVGWVYDPLTVPYSSNNEMVDVVRQALAIDECRCFFRQNLWFGEKDRKSDVLQVWFPGMHSDVGGGYAPKDSRLALVAFTWMLGEALEAGLHVDPARSRDQLRARSKQGPDPTAPILPVMTRPWRLAEWLPLLVWDRRSGNRAWRWSRGRPRSRPLEPVGQETRVKLHRSVQRRLDECPDYRPCNLPALERCDLIDDSPLLDGYRLEHHHHHH | not soluble |
| MTATITNKKSCSGSVEAGKTRLTTEWKPESQVPQYVKNELSKPHPNYILAFLNVVQQLKIQRRTGYLDLGIKECESISDHMYRLSIITMLIKDSRVNRDKCVRIALVHDIAESLVGDITPVDPIGKEEKHRREWETIKYLCNALIKPYNEIAAKEIMDDWLAYENVTSLEARYVKDIDKYEMLVQCFEYEREYKGTKNFDDFFGAVASIKTDEVKGWTSDLVVQRQKYFADLTQSITK | soluble |
| MFSAKKLSPADKLKNISSMLEEIVEDTTVPRNIRAAADNAKNALHNEEQELIVRSATAIQYLDDISEDPNMPIHTRTQIWGIVSELETIKN | not soluble |
| MGSDKIHHHHHHMSTPIGLGLPPTPPPVLAPRRKTRQLMVGKVGVGSDHPISVQSMTTTKTHDINGTLQQIAQLTATGCDIVRVACPKTVDAEALPIIAKKSPIPVIADIHFQPKYIFAAIDAGCAAVRVNPGNIKEFDGRVKEVAKAAGDAGIPIRIGVNGGSLDKRILDKYHGKATPEALVESAMWEAGLFEEHGFGDIAISVKHSDPVLMVEAYRQLAEQSDYPLHLGVTEAGPKFMGTIKSSVAFGALLSQGIGDTIRVSLSADPVEEIKVGDQILQSLNLRPRKLEIVSCPSCGRAQVDVYSLAEEVTEALDGMEVPLRVAVMGCVVNGPGEARDADLGVASGNGKGQIFVKGEVIKTVPESQIVETLIEEAMRIAEEMDPEVLAAASASGMKAEVKVTK | not soluble |
| GSPEFEFKQKYDYFRKKLKKPADIPNRFEMKLHRNNIFEESYRRIMSVKRPDVLKARLWIEFESEKGLDYGGVAREWFFLLSKEMFNPYYGLFEYSATDNYTLQINPNSGLCNEDHLSYFTFIGRVAGLAVFHGKLLDGFFIRPFYKMMLGKQITLNDMESVDSEYYNSLKWILENDPTELDLMFCIDEENFGQTYQVDLKPNGSEIMVTNENKREYIDLVIQWRFVNRVQKQMNAFLEGFTELLPIDLIKIFDENELELLMCGLGDVDVNDWRQHSIYKNGYCPNHPVIQWFWKAVLLMDAEKRIRLLQFVTGTSRVPMNGFAELYGSNGPQLFTIEQWGSPEKLPRAHTAFNRLDLPPYETFEDLREKLLMAVENAQGFEGVD | soluble |
| PSVQVTDGQINGESVRFIAVVPDANNHYPRAAGGEVGLLEGWTLAKVVNETIAADADRPVKRPIVAVIDVPSQAYGRREEAFGIHQALAGAAGAYAKARLAGHPVIGLIVGKAMSGAFLAHGYQANRLIAFNDSGVLVHAMGKASAARITLRTVEALEKLAATIPPMAY | not soluble |
| MDILILFYNTMWGFPLEFRKEDLPGGCVITTDRNLIAKADAVVFHLPDLPSVMEDEIDKREGQLWVGWSLECEENYSWTKDPEFRESFDLWMGYHQEDDIVYPYYGPDYGKMLVTARREKPYKKKACMFISSDMNRSHRQEYLKELMQYTDIDSYGKLYRNCELPVEDRGRDTLLSVIGDYQFVISFENAIGKDYVTEKFFNPLLAGTVPVYLGAPNIREFAPGENCFLDICTFDSPEGVAAFMNQCYDDEALYERFYAWRKRPLLLSFTKKLEQVRSNPLIRLCQKIHELKLGGILEHHHHHH | not soluble |
| MGSDKIHHHHHHMRSTDRLLFIDFLLKFENKNGTVIPCCVDNFDCTFTHKGGKSMYEKERKELYNAHLLLEKYGLVAYTSGNVSVRIGDHVLIKPSGVPYTELKPEDFVVVDLEGNVIEGEKKPSVDTATHLYLYKHLDWAKSVIHTHSTFAMVWAILEKSIPVLCTAHADVFGEEIPLTEYAPVGSEAIGKAVVKVIGKSGAVLLRKHGVMIVGTSVDDAVKKAIFLEEVAKAAYFATLAGKPTPLPPDEVDHLYNQYHTKYGQK | not soluble |
